B1: SI-79SF8 (Fc fusion)
chain: DIVLTQSPATLSVSPGERATLSCRASQSIGTNIHWYQQKPGQAPRLLIKYASESISGIPSRFSGSGSGTDFTLTISSVQSEDFAVYYCQQNNNWPTTFGQGTKLEIKGGGGSGGGGSGGGGSGGGGSQVQLQESGPGLVKPSESLSLTCTVSGFSLTNYGVHWVRQPPGKGLEWIGVIWSGGNTDYNTPFTSRVTISKDNSKNQVSLKMNSLTAADTAVYYCARALTYYDYEFAYWGQGTLVTVSSGSGGSPVAGPSVFLFPPKPKDTLMISRTPEVTCVVVDVSHEDPEVKFNWYVDGVEVHNAKTKPREEQYASTYRVVSVLTVLHQDWLNGKEYKCKVSNKALPAPIEKTISKAKGQPREPQVYTLPPSRDELTKNQVSLRCHVKGFYPSDIAVEWESNGQPENNYKTTKPVLDSDGSFFLYSTLTVDKSRWQQGNVFSCSVLHEALHNHYTQKSLSLSPGK
notes: also called H10; H10 scFv-monoFc
B2: SI-79SF13 (Fc fusion)
chain: B1 chain with E105T, I106V, K107L
notes: also called H11; H11 scFv-monoFc
B3: SI-79SF3 (Fc fusion)
chain: EIVMTQSPSTLSASVGDRVIITCRASQSIGTNIHWYQQKPGKAPKLLIYYASESISGIPSRFSGSGSGAEFTLTISSLQPDDFATYYCQQNNNWPTTFGQGTKLTVLGGGGSGGGGSGGGGSGGGGSEVQLVESGGGLVQPGGSLRLSCKVSGFSLTNYGVHWVRQAPGKGLEWVGVIWSGGNTDYNTPFTSRFTISRDTSKNTVYLQMNSLRAEDTAVYYCARALTYYDYEFAYWGQGTLVTVSSGSGGSPVAGPSVFLFPPKPKDTLMISRTPEVTCVVVDVSHEDPEVKFNWYVDGVEVHNAKTKPREEQYASTYRVVSVLTVLHQDWLNGKEYKCKVSNKALPAPIEKTISKAKGQPREPQVYTLPPSRDELTKNQVSLRCHVKGFYPSDIAVEWESNGQPENNYKTTKPVLDSDGSFFLYSTLTVDKSRWQQGNVFSCSVLHEALHNHYTQKSLSLSPGK
notes: also called H1; H1 scFv-monoFc
B4: SI-79SF5 (Fc fusion)
chain: DIVLTQSPSSLSVSPGERVTISCRASQSIGTNIHWYQQKPGQAPRLLIKYASESISGIPSRFSGSGSGTDFTLTISSVESEDFAVYYCQQNNNWPTTFGQGTKLEIKGGGGSGGGGSGGGGSGGGGSQVQLVESGPGLVQPSGSLSLTCTVSGFSLTNYGVHWVRQAPGKGLEWVGVIWSGGNTDYNTPFTSRFTISKDNSKNQVYLKMNSLRAEDTAVYYCARALTYYDYEFAYWGQGTLVTVSSGSGGSPVAGPSVFLFPPKPKDTLMISRTPEVTCVVVDVSHEDPEVKFNWYVDGVEVHNAKTKPREEQYASTYRVVSVLTVLHQDWLNGKEYKCKVSNKALPAPIEKTISKAKGQPREPQVYTLPPSRDELTKNQVSLRCHVKGFYPSDIAVEWESNGQPENNYKTTKPVLDSDGSFFLYSTLTVDKSRWQQGNVFSCSVLHEALHNHYTQKSLSLSPGK
notes: also called H8; H8 scFv-monoFc
B5: SI-79SF7 (Fc fusion)
chain: B4 chain with E105T, I106V, K107L
notes: also called H9; H9 scFv-monoFc
B6: SI-79SF4 (Fc fusion)
chain: EIVLTQSPSTLSVSPGERATFSCRASQSIGTNIHWYQQKPGKPPRLLIKYASESISGIPDRFSGSGSGTEFTLTISSVQSEDFAVYYCQQNNNWPTTFGPGTKLELKGGGGSGGGGSGGGGSGGGGSQVQLQQSGPGLVKPSETLSITCTVSGFSLTNYGVHWIRQAPGKGLEWLGVIWSGGNTDYNTPFTSRFTITKDNSKNQVYFKLRSVRADDTAIYYCARALTYYDYEFAYWGQGTLVTVSSGSGGSPVAGPSVFLFPPKPKDTLMISRTPEVTCVVVDVSHEDPEVKFNWYVDGVEVHNAKTKPREEQYASTYRVVSVLTVLHQDWLNGKEYKCKVSNKALPAPIEKTISKAKGQPREPQVYTLPPSRDELTKNQVSLRCHVKGFYPSDIAVEWESNGQPENNYKTTKPVLDSDGSFFLYSTLTVDKSRWQQGNVFSCSVLHEALHNHYTQKSLSLSPGK
notes: also called H4; H4 scFv-monoFc
B7: SI-79SF10 (Fc fusion)
chain: EIVLTQSPSILSVSPGERVTFSCRASQSIGTNIHWYQQRPGKPPRLLIKYASESISGIPARFSGSGSGTEFTLTISSVQSEDFATYYCQQNNNWPTTFGPGTKLELKGGGGSGGGGSGGGGSGGGGSQVQLVQSGPGLVKPSQTLSLTCTVSGFSLTNYGVHWIRQAPGKGLEWLGVIWSGGNTDYNTPFTSRFTITKDNSKNQVYFKLRSVRSEDTAVYYCARALTYYDYEFAYWGQGTLVTVSSGSGGSPVAGPSVFLFPPKPKDTLMISRTPEVTCVVVDVSHEDPEVKFNWYVDGVEVHNAKTKPREEQYASTYRVVSVLTVLHQDWLNGKEYKCKVSNKALPAPIEKTISKAKGQPREPQVYTLPPSRDELTKNQVSLRCHVKGFYPSDIAVEWESNGQPENNYKTTKPVLDSDGSFFLYSTLTVDKSRWQQGNVFSCSVLHEALHNHYTQKSLSLSPGK
notes: also called H3; H3 scFv-monoFc
B8: SI-79SF12 (Fc fusion)
chain: B6 chain with T10I, K39R, D60S, S76T, F83I, E143Q, T197S, V212L, D215E
notes: also called H2; H2 scFv-monoFc
B9: SI-79SF6 (Fc fusion)
chain: B6 chain with E105T, L106V, K107L
notes: also called H7; H7 scFv-monoFc
B10: SI-79SF11 (Fc fusion)
chain: EIQLTQSPSTLSVSPGERATFSCRASQSIGTNIHWYQQKTGQPPRLLIKYASESISGIPDRFSGSGSGTEFTLSITSVQSEDFAVYYCQQNNNWPTTFGPGTKLEILGGGGSGGGGSGGGGSGGGGSQVQLLQSGPGLVKPSETLSLTCTVSGFSLTNYGVHWIRQAPGKGLEWIGVIWSGGNTDYNTPFTSRFTISKDNSKNQVYFKLRSLTSEDTAIYYCARALTYYDYEFAYWGQGTLVTVSSGSGGSPVAGPSVFLFPPKPKDTLMISRTPEVTCVVVDVSHEDPEVKFNWYVDGVEVHNAKTKPREEQYASTYRVVSVLTVLHQDWLNGKEYKCKVSNKALPAPIEKTISKAKGQPREPQVYTLPPSRDELTKNQVSLRCHVKGFYPSDIAVEWESNGQPENNYKTTKPVLDSDGSFFLYSTLTVDKSRWQQGNVFSCSVLHEALHNHYTQKSLSLSPGK
notes: also called H5; H5 scFv-monoFc
B11: SI-79SF9 (Fc fusion)
chain: EIVLTQSPSTLSVSPGERVSFSCRASQSIGTNIHWYQQRTGQPPRLLIKYASESISGIPARFSGSGSGTEFTLTITSVQSEDFAVYYCQQNNNWPTTFGQGTKLDIKGGGGSGGGGSGGGGSGGGGSQVQLLQSGPGLVKPSETLSITCTVSGFSLTNYGVHWIRQAPGKGLEWIGVIWSGGNTDYNTPFTSRFTITKDNSKNQVFFKLRSVRAEDTALYYCARALTYYDYEFAYWGQGTLVTVSSGSGGSPVAGPSVFLFPPKPKDTLMISRTPEVTCVVVDVSHEDPEVKFNWYVDGVEVHNAKTKPREEQYASTYRVVSVLTVLHQDWLNGKEYKCKVSNKALPAPIEKTISKAKGQPREPQVYTLPPSRDELTKNQVSLRCHVKGFYPSDIAVEWESNGQPENNYKTTKPVLDSDGSFFLYSTLTVDKSRWQQGNVFSCSVLHEALHNHYTQKSLSLSPGK
notes: also called H6; H6 scFv-monoFc
B12: SI-79C3 (antibody, human IgG1, kappa, V domains shown)
VH: QVQLQQSGPGLVKPSETLSITCTVSGFSLTNYGVHWIRQAPGKGLEWLGVIWSGGNTDYNTPFTSRFTITKDNSKNQVYFKLRSVRADDTAIYYCARALTYYDYEFAYWGQGTLVTVSS
VL: EIVLTQSPSTLSVSPGERATFSCRASQSIGTNIHWYQQKPGKPPRLLIKYASESISGIPDRFSGSGSGTEFTLTISSVQSEDFAVYYCQQNNNWPTTFGPGTKLTVLR
notes: Humanized version H7 in IgG format; also called H7; humanized H7 mAb

Substitutions are numbered along the chain they refer to.

The first test concerns the target T1, soluble recombinant extracellular domain of human EGFR (human, UniProt P00533 25-645).
T1 construct: extracellular domain
Briefly: BLI of scFv-monoFc proteins, against wild-type cetuximab scFv-monoFc.
Description: (§1) Fc-containing protein was captured to anti-human Fc (AHC) sensor tips by loading for 180 seconds at 10 μg/ml. Alternatively, His-tagged proteins were covalently coupled at 10 ug/ml to AR2G tips using manufacturer protocol. After a 60-second baseline step, a 180- to 300-second association phase with serial dilutions (0-200 nM; 1:2.5 dilution factor) or a single 100 nM concentration of purified human EGFR in assay buffer (phosphate-buffered saline containing 0.1% BSA, 0.05% Tween20) was performed, followed by a 300- to 600—second dissociation phase in assay buffer. Regeneration was achieved using 10 mM glycine, pH 1.5. Binding curves were globally fit to a 1:1 model to extract the dissociation constants, KD. Binding kinetics for each protein were assessed in duplicate, with tabulated values reported as average±standard deviation.
(§2) The monoFc domain was used to load proteins onto anti-human Fc (AHC) sensors, followed by binding of scFv to serial dilutions of the extracellular domain of human EGFR.
For B1, the “fold decrease in binding affinity” value turned out to be 2 fold.
For the molecule B2, the “fold decrease in binding affinity” value is 2 fold.
Still for that read-out and setting: as for B3, the figure is 4 fold; as for B4, 2 fold.
For the molecule B5, the “fold decrease in binding affinity” value was determined as 2 fold.

Another test has as its target T1, soluble recombinant extracellular …. Briefly: BLI (Octet), scFv-monoFc on AHC sensors, serial dilutions of EGFR extracellular domain.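 Also: EGFR analyte titrated 0 to 200 nM, association 180–300 s then dissociation 300–600 s in PBS with 0.1% BSA and 0.05% Tween20, global 1:1 fit, duplicate means.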
Description: as §1, §2
Take B6: the Kd – broadly, the concentration at which binding is half-saturated – stood at 3.05 nM; the koff – broadly, the first-order rate constant of dissociation – came to 0.00139 s⁻¹; the kon (usually the rate constant with which the complex forms) was 450000 M⁻¹ s⁻¹.
For B7 the same measures were 3.45 nM, 0.00177 s⁻¹ and 504000 M⁻¹ s⁻¹.
For B8 the same measures were 3.08 nM, 0.00151 s⁻¹ and 481000 M⁻¹ s⁻¹.
Take B9: the Kd was determined as 3.14 nM, the koff is 0.00143 s⁻¹ and the on-rate (kon) was found to be 447000 M⁻¹ s⁻¹.
For B10 the same measures were 2.27 nM, 0.0011 s⁻¹ and 474000 M⁻¹ s⁻¹.
For B11, the Kd was 3.42 nM, the koff came out at 0.00165 s⁻¹ and the association rate constant (kon) was 476000 M⁻¹ s⁻¹.
For B1 the same measures were 6.77 nM, 0.00458 s⁻¹ and 665000 M⁻¹ s⁻¹.
Turning to B2, the dissociation constant (Kd) turned out to be 6.74 nM, the dissociation rate constant (koff) was 0.00454 s⁻¹ and the association rate constant (kon) came out at 661000 M⁻¹ s⁻¹.
For B3 the same measures were 13.1 nM, 0.00927 s⁻¹ and 718000 M⁻¹ s⁻¹.
As for B4, the Kd turned out to be 6.79 nM, the koff stood at 0.00393 s⁻¹ and the kon was 571000 M⁻¹ s⁻¹.
For B5 the same measures were 6.92 nM, 0.00395 s⁻¹ and 563000 M⁻¹ s⁻¹.

For a further test the target is unchanged. Kind of test: BLI (Octet), mAb on AHC sensors, soluble EGFR extracellular domain. A general note: In BLI a coated tip is dipped into the sample, and binding shifts an interference pattern.
Description: as §1
Regarding B12, the dissociation constant (Kd) came to 2.41 nM, the koff amounted to 0.000812 s⁻¹ and the on-rate constant (kon) came out at 337000 M⁻¹ s⁻¹.

Source of the values: patent publication US20250353917A1 (SYSTIMMUNE, published 2025).
